This is an account of results in the Human Domainome abundance scans (Beltran et al. 2025).

B1: Peroxisome proliferator-activated receptor delta, residues 71 to 145; numbered along this chain, Q03181 (parent)
chain: NMECRVCGDKASGFHYGVHACEGCKGFFRRTIRMKLEYEKCERSCKIQKKNRNKCQYCRFQKCLALGMSHNAIRF

± gives the uncertainty stated by the source.

Variants of B1 are the subject of the data set. Kind of data set: abundance fitness (aPCA) (normalised: wild type 0, dead -1); higher = more abundant; growth selection in yeast, the domain comes from the species named. The following applies: Homo sapiens.
On to NMECRVCGDKASEFHYGVHACEGCKGFFRRTIRMKLEYEKCERSCKIQKKNRNKCQYCRFQKCLALGMSHNAIRF [G13E], for which the abundance fitness is -0.274 ± 0.052. With NMECRVCGDKASVFHYGVHACEGCKGFFRRTIRMKLEYEKCERSCKIQKKNRNKCQYCRFQKCLALGMSHNAIRF [G13V], the abundance fitness was -0.353 ± 0.049. Regarding NMECRVCGDKASAFHYGVHACEGCKGFFRRTIRMKLEYEKCERSCKIQKKNRNKCQYCRFQKCLALGMSHNAIRF [G13A], the abundance fitness is -0.239 ± 0.044. As for NMECRVCGDKASWFHYGVHACEGCKGFFRRTIRMKLEYEKCERSCKIQKKNRNKCQYCRFQKCLALGMSHNAIRF [G13W], the figure is -0.708 ± 0.097; as for NMECRVCGDKASGFHNGVHACEGCKGFFRRTIRMKLEYEKCERSCKIQKKNRNKCQYCRFQKCLALGMSHNAIRF [Y16N], -0.032 ± 0.069; as for NMECRVCGDKASGFHTGVHACEGCKGFFRRTIRMKLEYEKCERSCKIQKKNRNKCQYCRFQKCLALGMSHNAIRF [Y16T], -0.32 ± 0.059.

As to NMECRVCGDKASGFHKGVHACEGCKGFFRRTIRMKLEYEKCERSCKIQKKNRNKCQYCRFQKCLALGMSHNAIRF [Y16K], the abundance fitness is -0.356 ± 0.086. Take NMECRVCGDKASGFHRGVHACEGCKGFFRRTIRMKLEYEKCERSCKIQKKNRNKCQYCRFQKCLALGMSHNAIRF [Y16R]: the abundance fitness is -0.533 ± 0.057.

NMECRVCGDKASGFHSGVHACEGCKGFFRRTIRMKLEYEKCERSCKIQKKNRNKCQYCRFQKCLALGMSHNAIRF [Y16S]: the abundance fitness is -0.132 ± 0.041. Turning to NMECRVCGDKASGFHEGVHACEGCKGFFRRTIRMKLEYEKCERSCKIQKKNRNKCQYCRFQKCLALGMSHNAIRF [Y16E], the abundance fitness is -0.023 ± 0.047. With NMECRVCGDKASGFHGGVHACEGCKGFFRRTIRMKLEYEKCERSCKIQKKNRNKCQYCRFQKCLALGMSHNAIRF [Y16G], the abundance fitness was -0.013 ± 0.044. Consider NMECRVCGDKASGFHAGVHACEGCKGFFRRTIRMKLEYEKCERSCKIQKKNRNKCQYCRFQKCLALGMSHNAIRF [Y16A], for which the abundance fitness is -0.065 ± 0.042. Take NMECRVCGDKASGFHFGVHACEGCKGFFRRTIRMKLEYEKCERSCKIQKKNRNKCQYCRFQKCLALGMSHNAIRF [Y16F]: the abundance fitness is -0.085 ± 0.082.

Take NMECRVCGDKASGFHDGVHACEGCKGFFRRTIRMKLEYEKCERSCKIQKKNRNKCQYCRFQKCLALGMSHNAIRF [Y16D]: the abundance fitness was determined as 0.126 ± 0.056.

Turning to NMECRVCGDKASGFHQGVHACEGCKGFFRRTIRMKLEYEKCERSCKIQKKNRNKCQYCRFQKCLALGMSHNAIRF [Y16Q], the abundance fitness was -0.034 ± 0.057.

For the variant NMECRVCGDKASGFHMGVHACEGCKGFFRRTIRMKLEYEKCERSCKIQKKNRNKCQYCRFQKCLALGMSHNAIRF [Y16M], the abundance fitness was -0.171 ± 0.057. Consider NMECRVCGDKASGFHHGVHACEGCKGFFRRTIRMKLEYEKCERSCKIQKKNRNKCQYCRFQKCLALGMSHNAIRF [Y16H], for which the abundance fitness was -0.13 ± 0.071. As for NMECRVCGDKASGFHVGVHACEGCKGFFRRTIRMKLEYEKCERSCKIQKKNRNKCQYCRFQKCLALGMSHNAIRF [Y16V], the figure is -0.281 ± 0.049.

Take NMECRVCGDKASGFHLGVHACEGCKGFFRRTIRMKLEYEKCERSCKIQKKNRNKCQYCRFQKCLALGMSHNAIRF [Y16L]: the abundance fitness is -0.269 ± 0.045. As for NMECRVCGDKASGCHYGVHACEGCKGFFRRTIRMKLEYEKCERSCKIQKKNRNKCQYCRFQKCLALGMSHNAIRF [F14C], the figure is -0.076 ± 0.059; as for NMECRVCGDKASGEHYGVHACEGCKGFFRRTIRMKLEYEKCERSCKIQKKNRNKCQYCRFQKCLALGMSHNAIRF [F14E], 0.066 ± 0.042; as for NMECRVCGDKASGGHYGVHACEGCKGFFRRTIRMKLEYEKCERSCKIQKKNRNKCQYCRFQKCLALGMSHNAIRF [F14G], -0.299 ± 0.039. Consider NMECRVCGDKASGPHYGVHACEGCKGFFRRTIRMKLEYEKCERSCKIQKKNRNKCQYCRFQKCLALGMSHNAIRF [F14P], for which the abundance fitness was -0.14 ± 0.051. With NMECRVCGDKASGRHYGVHACEGCKGFFRRTIRMKLEYEKCERSCKIQKKNRNKCQYCRFQKCLALGMSHNAIRF [F14R], the abundance fitness was -0.138 ± 0.035. NMECRVCGDKASGWHYGVHACEGCKGFFRRTIRMKLEYEKCERSCKIQKKNRNKCQYCRFQKCLALGMSHNAIRF [F14W]: the abundance fitness is -0.118 ± 0.052. As for NMECRVCGDKASGTHYGVHACEGCKGFFRRTIRMKLEYEKCERSCKIQKKNRNKCQYCRFQKCLALGMSHNAIRF [F14T], the abundance fitness turned out to be 0.066 ± 0.042. As for NMECRVCGDKASGDHYGVHACEGCKGFFRRTIRMKLEYEKCERSCKIQKKNRNKCQYCRFQKCLALGMSHNAIRF [F14D], the figure is 0.014 ± 0.052; as for NMECRVCGDKASGVHYGVHACEGCKGFFRRTIRMKLEYEKCERSCKIQKKNRNKCQYCRFQKCLALGMSHNAIRF [F14V], 0.018 ± 0.037. In the case of NMECRVCGDKASGHHYGVHACEGCKGFFRRTIRMKLEYEKCERSCKIQKKNRNKCQYCRFQKCLALGMSHNAIRF [F14H], the abundance fitness is -0.098 ± 0.077. Take NMECRVCGDKASGQHYGVHACEGCKGFFRRTIRMKLEYEKCERSCKIQKKNRNKCQYCRFQKCLALGMSHNAIRF [F14Q]: the abundance fitness is -0.064 ± 0.056. Take NMECRVCGDKASGAHYGVHACEGCKGFFRRTIRMKLEYEKCERSCKIQKKNRNKCQYCRFQKCLALGMSHNAIRF [F14A]: the abundance fitness was -0.028 ± 0.039.

Turning to NMECRVCGDKASGMHYGVHACEGCKGFFRRTIRMKLEYEKCERSCKIQKKNRNKCQYCRFQKCLALGMSHNAIRF [F14M], the abundance fitness is -0.059 ± 0.053.

For the variant NMECRVCGDKASGIHYGVHACEGCKGFFRRTIRMKLEYEKCERSCKIQKKNRNKCQYCRFQKCLALGMSHNAIRF [F14I], the abundance fitness stood at 0.002 ± 0.064. On to NMECRVCGDKASGKHYGVHACEGCKGFFRRTIRMKLEYEKCERSCKIQKKNRNKCQYCRFQKCLALGMSHNAIRF [F14K], for which the abundance fitness is 0.006 ± 0.054. Turning to NMECRVCGDKASGYHYGVHACEGCKGFFRRTIRMKLEYEKCERSCKIQKKNRNKCQYCRFQKCLALGMSHNAIRF [F14Y], the abundance fitness amounted to 0.038 ± 0.063. Next, NMECRVCGDKASGNHYGVHACEGCKGFFRRTIRMKLEYEKCERSCKIQKKNRNKCQYCRFQKCLALGMSHNAIRF [F14N]: -0.066 ± 0.067.

Turning to NMECRVCGDKASGLHYGVHACEGCKGFFRRTIRMKLEYEKCERSCKIQKKNRNKCQYCRFQKCLALGMSHNAIRF [F14L], the abundance fitness was 0.085 ± 0.034.
